System: peptide library, one residue held at a place counted from the S/T acceptor
Assay: relative phosphorylation of the sub-library (ratio to the mean residue at this position); higher = residue favoured
In short: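 Relative sub-library phosphorylation is the ratio of each sub-library's signal to the mean residue at that position. The signal came from phosphorimaging of spots on streptavidin membranes, quantified by densitometry, after purified recombinant kinases reacted with biotinylated degenerate peptide sub-libraries in 384-well plates. Reactions held 50 μM peptide and 50 μM ATP spiked with γ-32P-ATP for 90 min under kinase-specific conditions.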

Sequence of GRK4, construct: Full length, human (P32298 whole entry, looked up): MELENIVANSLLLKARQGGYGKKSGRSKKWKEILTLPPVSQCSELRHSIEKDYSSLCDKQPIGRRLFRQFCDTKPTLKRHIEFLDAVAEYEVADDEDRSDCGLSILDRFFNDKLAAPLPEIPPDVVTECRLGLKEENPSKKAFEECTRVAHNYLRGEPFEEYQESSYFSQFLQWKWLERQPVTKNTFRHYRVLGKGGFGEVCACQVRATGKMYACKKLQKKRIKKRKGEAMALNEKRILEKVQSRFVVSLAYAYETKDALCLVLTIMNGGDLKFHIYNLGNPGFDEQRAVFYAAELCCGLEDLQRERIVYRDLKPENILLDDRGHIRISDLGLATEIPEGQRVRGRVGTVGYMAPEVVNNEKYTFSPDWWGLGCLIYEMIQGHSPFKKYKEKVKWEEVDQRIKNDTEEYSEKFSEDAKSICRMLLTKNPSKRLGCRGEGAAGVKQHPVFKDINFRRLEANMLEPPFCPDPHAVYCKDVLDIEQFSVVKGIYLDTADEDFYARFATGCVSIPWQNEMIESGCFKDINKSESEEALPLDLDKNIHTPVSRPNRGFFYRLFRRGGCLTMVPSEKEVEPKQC
Sequence of TRPM6, construct: aa1699-end, human (Q9BX84 1699-2022, looked up): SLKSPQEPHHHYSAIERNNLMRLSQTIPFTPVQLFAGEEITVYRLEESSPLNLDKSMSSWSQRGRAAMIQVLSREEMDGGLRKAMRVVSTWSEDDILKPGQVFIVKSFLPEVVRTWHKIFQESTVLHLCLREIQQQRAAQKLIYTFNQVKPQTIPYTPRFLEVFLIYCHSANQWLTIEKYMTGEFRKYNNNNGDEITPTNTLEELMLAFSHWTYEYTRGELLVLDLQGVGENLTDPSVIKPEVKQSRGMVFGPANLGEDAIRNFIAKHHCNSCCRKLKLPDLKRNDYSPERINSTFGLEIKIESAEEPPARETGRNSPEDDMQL

GRK4, construct: Full length, human (from UniProt P32298)
relative phosphorylation
Settings	at +1	at +2	at +3	at +4	at -1	at -2	at -3	at -4	at -5
A fixed	0.613	1.5	0.747	0.859	0.654	0.895	0.863	0.994	1
D fixed	0.683	1.24	1.53	1.65	1.57	2.39	1.88	1.75	1.83
E fixed	1.41	0.872	1.57	1.51	1.2	1.95	1.88	1.69	1.48
F fixed	1.52	1.23	1.51	1.17	0.998	0.992	0.902	0.854	0.992
G fixed	0.577	0.879	0.953	0.928	0.619	0.983	0.927	0.965	1.02
H fixed	0.879	0.954	0.99	0.911	1.92	0.855	0.911	0.897	0.991
I fixed	1.57	1.54	0.741	0.779	0.637	0.649	0.697	0.752	0.695
K fixed	0.455	0.414	0.432	0.614	0.492	0.547	0.612	0.778	0.89
L fixed	1.01	0.356	0.763	0.777	0.882	0.619	0.745	0.835	0.796
M fixed	1.44	0.717	0.918	0.894	0.792	0.681	0.858	0.874	0.794
N fixed	0.674	0.753	0.685	0.906	1.28	1.18	1.03	1.05	0.954
P fixed	0.249	0.522	0.928	1.3	0.607	0.77	1.2	0.977	0.892
Q fixed	1.28	0.613	0.662	0.903	0.805	0.872	0.912	0.839	0.86
R fixed	0.602	0.408	0.554	0.654	0.542	0.789	0.787	0.797	0.814
V fixed	1.75	1.85	0.782	0.855	1.21	0.71	0.721	0.812	0.773
W fixed	1.16	1.73	2.11	1.29	0.812	1.21	0.941	1.09	1.25
Y fixed	1.12	1.43	1.12	1	1.97	0.903	1.13	1.05	0.975
pThr fixed	1.45	0.994	1.12	2.32	0.656	3.34	3.2	1.75	1.4
pTyr fixed	1.46	1.33	1.25	1.81	1.73	3.38	2.82	2.06	1.71

TRPM6, construct: aa1699-end, human (from UniProt Q9BX84)
relative phosphorylation
Settings	at +1	at +2	at +3	at +4	at -1	at -2	at -3	at -4	at -5
A fixed	0.996	1.48	2.44	0.962	0.767	0.976	0.898	1.12	1.29
D fixed	0.396	0.307	0.4	0.983	0.669	0.615	0.898	1	1.12
E fixed	0.732	0.319	0.381	0.993	0.577	0.678	0.928	1.11	1.22
F fixed	0.824	1.31	0.776	0.816	0.504	1.03	0.829	0.991	1.02
G fixed	0.509	0.788	1.09	1.33	0.421	1.36	1.06	1.35	1.43
H fixed	1.08	0.995	0.992	1.01	1.24	0.768	1.08	0.911	1.11
I fixed	1.19	0.651	0.394	0.755	0.46	0.519	0.825	0.819	0.69
K fixed	2.27	0.855	2.27	1.27	4.26	0.678	1.18	0.887	1.12
L fixed	0.909	0.92	0.633	0.705	0.673	0.772	0.928	0.81	0.696
M fixed	0.816	1.38	0.708	0.88	0.576	1.17	0.838	0.914	0.767
N fixed	0.685	0.66	1.04	0.945	1.08	0.731	1.34	0.931	1
P fixed	0.376	2.29	0.963	1.3	0.964	1.74	1.5	1.35	0.904
Q fixed	1.36	0.956	0.827	1.27	0.892	0.773	1.14	1.08	1.07
R fixed	1.96	0.942	1.83	1.02	2.16	0.609	0.963	0.901	0.928
V fixed	0.903	0.562	0.539	0.805	0.51	0.609	0.737	0.789	0.747
W fixed	0.873	1.28	0.679	1.01	0.464	3.23	1.09	1.16	0.996
Y fixed	1.12	1.3	1.04	0.948	0.78	0.746	0.774	0.875	0.884
pThr fixed	0.646	0.552	0.592	1.04	0.7	0.837	1.1	1.2	1.21
pTyr fixed	1.15	0.701	0.772	0.915	0.729	0.729	0.959	1.02	0.79

Reference: the supplement of paper PMC9876800
